The target of this series is T1, SOX2 (Homo sapiens, UniProt P48431).
T1 construct: endogenous in cells; host or cells: nuclear extract of GSC7 and GSC328 (patient-derived glioblastoma stem cell lines)
The experiment in a line: Biotinylated enhancer pull down with nuclear extract and mass spectrometry. The series is classed as binding. Conditions: normalised to random sequence 599. On the procedure: The oligo was PCR-amplified using biotinylated primers. The PCR product was then SPRI purified to remove biotinylated primer dimers. These dsDNA fragments were incubated with nuclear extract from GSC7 and GSC328. They were then bound to streptavidin magnetic beads, washed three times and the frozen beads were sent for mass spectrometry analysis.
All the buffers were prepared the day before, passed through a […] filter (except the dialysis buffer) and left at 4° C. overnight. DTT and protease inhibitors were added just before use. The cells were scraped on the media and collected on 50 ml falcons, which were spun at 1350 rcf 5 minutes at 4° C. The pellet was resuspended in 50 ml of ice cold PBS, an aliquot was taken for cell counting, and spun again spun at 1350 rcf 5 minutes at 4° C. The pellet was then resuspended in 5 ml per 40 million cells of ice cold buffer A (10 mM HEPES pH 7.9, 1.5 mM MgCl2, 10 mM KCl, 0.5 mM DTT, protease inhibitors (Complete, Roche, 11697498001)) and incubated on ice for 10 min. The cell suspension was transferred to a glass Dounce homogenizer and dounced 40 times on ice. The cell suspension was transferred to a falcon and centrifuged at 1350 rcf for 10 min at 4° C. […] The supernatant was collected into new 1.5 ml tubes and quantified (Pierce BCA Protein Assay Kit, Thermo Scientific, Cat 23225). […]

T1 sequence (P48431 whole entry): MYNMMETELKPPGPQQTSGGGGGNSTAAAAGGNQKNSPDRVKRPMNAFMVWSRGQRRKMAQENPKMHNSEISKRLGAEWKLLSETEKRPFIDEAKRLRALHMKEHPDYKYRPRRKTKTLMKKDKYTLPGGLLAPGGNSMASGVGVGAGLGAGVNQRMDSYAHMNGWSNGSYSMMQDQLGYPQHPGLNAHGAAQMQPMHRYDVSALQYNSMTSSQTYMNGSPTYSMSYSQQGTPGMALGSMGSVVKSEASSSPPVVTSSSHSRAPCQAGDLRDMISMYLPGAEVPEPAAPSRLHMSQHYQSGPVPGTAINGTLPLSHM

B1: ID1101: enhancer fragment, SEQ ID NO: 4 (nucleic acid)
DNA: GTGAGTGTGACTCACATGCTGGCATCAGAGCCCCTCTTAGAGCTTAGAACACTGGGCCTCTGTCAGGCAAAGAAAAGGAGTCCCTATGAATAGCCATCTCCACAAATAGCAGTTACTGTCACTTCTTAAAAGACACAAGCATGGCTGGAGACCGGCACTG
On to B1, for which the “SOX2 enrichment in pull down (mass spectrometry)” value (G7 nuclear extract) worked out at 4.4 fold and the “SOX2 enrichment in pull down (mass spectrometry)” value (GSC328 nuclear extract) stood at 23 fold.
